The text below walks through data of article PMC7666136 (2020).

First the molecules themselves.
B1: eGFP-53BP1 (wild-type TP53-binding protein 1 tagged with enhanced green fluorescent protein) [not stated] / itself (parent complex)
chain: MDPTGSQLDSDFSQQDTPCLIIEDSQPESQVLEDDSGSHFSMLSRHLPNLQTHKENPVLDVVSNPEQTAGEERGDGNSGFNEHLKENKVADPVDSSNLDTCGSISQVIEQLPQPNRTSSVLGMSVESAPAVEEEKGEELEQKEKEKEEDTSGNTTHSLGAEDTASSQLGFGVLELSQSQDVEENTVPYEVDKEQLQSVTTNSGYTRLSDVDANTAIKHEEQSNEDIPIAEQSSKDIPVTAQPSKDVHVVKEQNPPPARSEDMPFSPKASVAAMEAKEQLSAQELMESGLQIQKSPEPEVLSTQEDLFDQSNKTVSSDGCSTPSREEGGCSLASTPATTLHLLQLSGQRSLVQDSLSTNSSDLVAPSPDAFRSTPFIVPSSPTEQEGRQDKPMDTSVLSEEGGEPFQKKLQSGEPVELENPPLLPESTVSPQASTPISQSTPVFPPGSLPIPSQPQFSHDIFIPSPSLEEQSNDGKKDGDMHSSSLTVECSKTSEIEPKNSPEDLGLSLTGDSCKLMLSTSEYSQSPKMESLSSHRIDEDGENTQIEDTEPMSPVLNSKFVPAENDSILMNPAQDGEVQLSQNDDKTKGDDTDTRDDISILATGCKGREETVAEDVCIDLTCDSGSQAVPSPATRSEALSSVLDQEEAMEIKEHHPEEGSSGSEVEEIPETPCESQGEELKEENMESVPLHLSLTETQSQGLCLQKEMPKKECSEAMEVETSVISIDSPQKLAILDQELEHKEQEAWEEATSEDSSVVIVDVKEPSPRVDVSCEPLEGVEKCSDSQSWEDIAPEIEPCAENRLDTKEEKSVEYEGDLKSGTAETEPVEQDSSQPSLPLVRADDPLRLDQELQQPQTQEKTSNSLTEDSKMANAKQLSSDAEAQKLGKPSAHASQSFCESSSETPFHFTLPKEGDIIPPLTGATPPLIGHLKLEPKRHSTPIGISNYPESTIATSDVMSESMVETHDPILGSGKGDSGAAPDVDDKLCLRMKLVSPETEASEESLQFNLEKPATGERKNGSTAVAESVASPQKTMSVLSCICEARQENEARSEDPPTTPIRGNLLHFPSSQGEEEKEKLEGDHTIRQSQQPMKPISPVKDPVSPASQKMVIQGPSSPQGEAMVTDVLEDQKEGRSTNKENPSKALIERPSQNNIGIQTMECSLRVPETVSAATQTIKNVCEQGTSTVDQNFGKQDATVQTERGSGEKPVSAPGDDTESLHSQGEEEFDMPQPPHGHVLHRHMRTIREVRTLVTRVITDVYYVDGTEVERKVTEETEEPIVECQECETEVSPSQTGGSSGDLGDISSFSSKASSLHRTSSGTSLSAMHSSGSSGKGAGPLRGKTSGTEPADFALPSSRGGPGKLSPRKGVSQTGTPVCEEDGDAGLGIRQGGKAPVTPRGRGRRGRPPSRTTGTRETAVPGPLGIEDISPNLSPDDKSFSRVVPRVPDSTRRTDVGAGALRRSDSPEIPFQAAAGPSDGLDASSPGNSFVGLRVVAKWSSNGYFYSGKITRDVGAGKYKLLFDDGYECDVLGKDILLCDPIPLDTEVTALSEDEYFSAGVVKGHRKESGELYYSIEKEGQRKWYKRMAVILSLEQGNRLREQYGLGPYEAVTPLTKAADISLDNLVEGKRKRRSNVSSPATPTASSSSSTTPTRKITESPRASMGVLSGKRKLITSEEERSPAKRGRKSATVKPGAVGAGEFVSPCESGDNTGEPSALEEQRGPLPLNKTLFLGYAFLLTMATTSDKLASRSKLPDGPTGSSEEEEEFLEIPPFNKQYTESQLRAGAGYILEDFNEAQCNTAYQCLLIADQHCRTRKYFLCLASGIPCVSHVWVHDSCHANQLQNYRNYLLPAGYSLEEQRILDWQPRENPFQNLKVLLVSDQQQNFLELWSEILMTGGAASVKQHHSSAHNKDIALGVFDVVVTDPSCPASVLKCAEALQLPVVSQEWVIQCLIVGERIGFKQHPKYKHDYVSH

The variants in one assay derive from B1. The experiment in a line: Number and brightness (NB) analysis of fluorescence fluctuation spectroscopy in live DIvA cells; live DIvA cell nuclei, transient transfection, N = 10 cells, two biological replicates; value is the box median; parent: 0.22; read off a plot.
chain 1 Y1258A, chain 1 Y1259A: the screen value is ~0.06 fraction (pixels).

A further assay covers variants of B1. The experiment in a line: Number and brightness (NB) analysis of fluorescence fluctuation spectroscopy in live DIvA cells; single representative cell ROI; value is the top of the teal (monomer) segment of the stacked bar, the rest of the bar being dimer (green); parent: 0.79; read off a plot.
With chain 1 Y1258A, chain 1 Y1259A, the screen value is ~0.96 fraction (pixels).
